Laboratory results reported in US20220241314A1, “COMPOSITIONS AND METHODS FOR TREATMENT OF HEPATITIS B VIRUS INFECTION” (priority 2019, published 2022).
{ppp} = triphosphate

Test system: IRF3
Test: Innate immune activation in primary human hepatocytes (immunoblot, RT-qPCR)
Assay type: cell-based
Conditions: PHH, 24 and 72 hours
Method: FIGS. 7A-7C illustrate suppression of cccDNA in primary human hepatocytes. (7A) PHH were cultured alone or were treated with 100 ng/ml X-RNA (X100), or 50 ng/ml (P50), 100 ng/ml (P100) or 200 ng/ml (P200) poly-U/UC PAMP or were infected with SenV (control) and harvested 24 and 72 hours later. The cell lysates were analyzed by immunoblot for p-IRF3 (S386 phosphorylated, active IRF3), IRF3 (total IRF3), IFIT1, and Actin (control) using respective antibodies. (7B) PHH cultures were cultured alone or were treated with 100 ng/ml X-RNA (X100), or 100 ng/ml (P100) or 200 ng/ml (P200) poly-U/UC PAMP or were infected with SenV (control) and harvested 24 and 72 later. Cells were harvested, RNA extracted and analyzed by RT-qPCR to measure the expression levels of the indicated innate immune genes normalized to the level of GAPDH expression. Values are shown on the heat map as mean fold induction over nontreated cells from three independent experiments. (7C) PHH cultures were inoculated with HBV at moi of 200 Geq/cell. […] Three days later the cells were harvested, DNA isolated by isolated Hirt extraction, and analyzed by Southern blot using a HBV-specific probe. […]
PHH cultures were treated over a poly-U/UC PAMP dose-response and assessed innate immune activation. […]

B1: poly-U/UC PAMP: ~100 nt PAMP motif from the HCV genome comprising 5′ppp and the poly U/UC region, recognized by RIG-I; formulated in liposome (nucleic acid)
chain: GGCCAUCCUGUUUUUUUCCCUUUUUUUUUUUCUUUUUUUUUUUUUUUUUUUUUUUUUUUUUUUUUUCUCCUUUUUUUUUCCUCUUUUUUUCCUUUUCUUUCCUUU
modifications: RNA, 5' {ppp}, backbone and methylation of C not given here; formulated in liposome
notes: ~100 nt PAMP motif from the HCV genome comprising 5′ppp and the poly U/UC region, recognized by RIG-I; formulated in liposome
- innate immune gene expression (RT-qPCR): robustly induced innate immune gene expression
- IRF3 activation (phosphoserine 386 IRF3) and IFIT1 expression (poly-U/UC PAMP 50-200 ng/ml, X-RNA 100 ng/ml): induced IRF3 activation
